According to the supplement of paper PMC11136658:

Tested on: peptide library, one residue held at a place counted from the Y acceptor
Assay: relative phosphorylation of the sub-library (ratio to the mean residue at this position); higher = residue favoured
Outline: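 Purified recombinant kinases were given 50 μM ATP with γ-32P-ATP and biotinylated Tyr-centred peptide library mixtures for 90 min in 384-well plates. Peptides bound to streptavidin membranes were rinsed and quantified by phosphorimaging, and intensities were normalized per position by the sum of the 18 randomized residues (16 with the Ser/Thr-free library) and multiplied by that number. The reported values are phosphorylation relative to the mean randomized residue.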

ABL1, construct: aa27-end, human, sequence (P00519 27-1130, looked up): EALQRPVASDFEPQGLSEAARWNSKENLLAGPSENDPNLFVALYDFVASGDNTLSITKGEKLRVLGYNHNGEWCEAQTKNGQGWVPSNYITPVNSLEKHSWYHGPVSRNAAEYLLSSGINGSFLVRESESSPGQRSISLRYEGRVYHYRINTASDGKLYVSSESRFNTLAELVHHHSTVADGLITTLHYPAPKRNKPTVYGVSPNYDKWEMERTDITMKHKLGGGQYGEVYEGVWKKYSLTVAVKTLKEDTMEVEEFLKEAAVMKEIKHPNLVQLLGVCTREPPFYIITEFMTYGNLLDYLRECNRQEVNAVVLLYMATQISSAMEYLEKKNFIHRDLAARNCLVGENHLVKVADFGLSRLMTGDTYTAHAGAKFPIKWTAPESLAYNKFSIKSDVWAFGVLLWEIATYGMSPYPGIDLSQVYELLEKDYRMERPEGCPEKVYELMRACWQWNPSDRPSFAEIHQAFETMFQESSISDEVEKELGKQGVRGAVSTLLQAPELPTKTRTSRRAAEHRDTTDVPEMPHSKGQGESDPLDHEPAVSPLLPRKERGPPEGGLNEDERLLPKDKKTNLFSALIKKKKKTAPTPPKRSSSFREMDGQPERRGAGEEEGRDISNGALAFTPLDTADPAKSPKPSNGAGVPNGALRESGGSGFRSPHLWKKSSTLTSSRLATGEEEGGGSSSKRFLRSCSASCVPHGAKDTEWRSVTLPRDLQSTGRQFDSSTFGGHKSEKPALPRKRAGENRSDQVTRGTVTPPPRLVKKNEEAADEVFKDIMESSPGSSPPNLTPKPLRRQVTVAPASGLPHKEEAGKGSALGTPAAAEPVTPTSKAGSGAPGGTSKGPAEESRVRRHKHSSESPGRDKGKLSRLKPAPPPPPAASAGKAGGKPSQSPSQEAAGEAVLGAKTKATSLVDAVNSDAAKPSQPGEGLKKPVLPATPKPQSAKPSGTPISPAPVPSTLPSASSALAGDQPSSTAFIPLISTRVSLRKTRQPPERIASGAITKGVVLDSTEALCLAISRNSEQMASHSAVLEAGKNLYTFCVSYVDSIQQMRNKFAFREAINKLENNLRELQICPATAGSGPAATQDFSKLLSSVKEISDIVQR
ALK, construct: aa1058-end, human, sequence (Q9UM73 1058-1620, looked up): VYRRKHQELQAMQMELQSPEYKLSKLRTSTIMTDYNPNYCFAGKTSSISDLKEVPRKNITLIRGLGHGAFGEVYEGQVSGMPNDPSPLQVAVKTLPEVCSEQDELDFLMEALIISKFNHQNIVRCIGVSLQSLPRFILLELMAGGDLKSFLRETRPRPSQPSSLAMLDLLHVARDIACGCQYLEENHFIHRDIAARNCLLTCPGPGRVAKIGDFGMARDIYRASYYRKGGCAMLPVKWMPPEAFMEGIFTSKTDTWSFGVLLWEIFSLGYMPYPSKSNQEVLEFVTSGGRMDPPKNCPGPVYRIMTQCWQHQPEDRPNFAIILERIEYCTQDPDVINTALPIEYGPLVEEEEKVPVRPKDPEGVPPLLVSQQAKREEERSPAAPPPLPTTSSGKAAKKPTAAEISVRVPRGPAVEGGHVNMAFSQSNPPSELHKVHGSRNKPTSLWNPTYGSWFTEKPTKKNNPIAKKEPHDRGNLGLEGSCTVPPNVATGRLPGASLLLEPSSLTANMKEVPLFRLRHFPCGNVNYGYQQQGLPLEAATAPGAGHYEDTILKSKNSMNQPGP
ABL2, construct: aa38-end, human, sequence (P42684 38-1182, looked up): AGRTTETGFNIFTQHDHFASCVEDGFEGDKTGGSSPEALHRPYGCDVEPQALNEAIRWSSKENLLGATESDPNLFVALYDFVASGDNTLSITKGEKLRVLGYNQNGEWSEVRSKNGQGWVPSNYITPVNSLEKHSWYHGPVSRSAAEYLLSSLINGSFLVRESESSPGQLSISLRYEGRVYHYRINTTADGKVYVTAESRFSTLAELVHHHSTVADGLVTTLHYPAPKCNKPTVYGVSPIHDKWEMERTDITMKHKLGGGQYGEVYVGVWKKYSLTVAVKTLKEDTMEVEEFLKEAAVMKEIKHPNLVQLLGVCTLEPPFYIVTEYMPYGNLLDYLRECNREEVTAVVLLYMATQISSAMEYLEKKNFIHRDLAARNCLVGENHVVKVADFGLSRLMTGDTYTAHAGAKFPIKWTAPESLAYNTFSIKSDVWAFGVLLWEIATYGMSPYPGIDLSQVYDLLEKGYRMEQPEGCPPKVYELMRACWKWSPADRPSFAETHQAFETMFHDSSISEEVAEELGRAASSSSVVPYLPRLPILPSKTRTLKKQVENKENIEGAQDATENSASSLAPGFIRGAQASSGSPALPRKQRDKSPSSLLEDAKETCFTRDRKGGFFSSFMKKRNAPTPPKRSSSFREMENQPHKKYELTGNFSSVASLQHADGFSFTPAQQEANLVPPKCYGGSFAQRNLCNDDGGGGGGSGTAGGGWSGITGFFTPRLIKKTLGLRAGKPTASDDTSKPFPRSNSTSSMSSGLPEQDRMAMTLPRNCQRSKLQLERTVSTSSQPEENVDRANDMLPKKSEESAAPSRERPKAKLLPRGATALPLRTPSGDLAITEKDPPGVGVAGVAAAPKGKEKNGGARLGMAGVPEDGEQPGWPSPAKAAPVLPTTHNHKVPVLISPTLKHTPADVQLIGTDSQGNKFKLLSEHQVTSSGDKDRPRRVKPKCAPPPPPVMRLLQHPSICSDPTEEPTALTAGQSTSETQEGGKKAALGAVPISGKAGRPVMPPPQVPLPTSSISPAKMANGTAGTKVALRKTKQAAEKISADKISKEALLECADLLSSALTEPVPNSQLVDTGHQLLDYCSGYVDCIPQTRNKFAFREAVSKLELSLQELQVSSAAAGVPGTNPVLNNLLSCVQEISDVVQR

ABL1, construct: aa27-end, human (from UniProt P00519)
relative phosphorylation
Details | at +1 | at +2 | at +3 | at +4 | at +5 | at -1 | at -2 | at -3 | at -4 | at -5
A fixed | 3.14 | 1.24 | 0.892 | 0.948 | 1.12 | 0.702 | 1.12 | 1.02 | 1.24 | 1.16
D fixed | 0.625 | 0.513 | 0.23 | 0.579 | 0.651 | 0.886 | 0.85 | 1.21 | 1.2 | 1.03
E fixed | 0.874 | 0.93 | 0.159 | 0.615 | 0.611 | 1.2 | 1.24 | 1.91 | 1.52 | 0.963
F fixed | 0.86 | 0.975 | 1.28 | 1.16 | 0.705 | 0.795 | 0.615 | 0.796 | 0.702 | 0.817
G fixed | 1.36 | 0.628 | 1.36 | 1.34 | 1.27 | 0.502 | 1.27 | 1.16 | 1.36 | 1.24
H fixed | 1.17 | 0.749 | 0.814 | 1.17 | 1.1 | 1.63 | 0.935 | 0.919 | 0.893 | 1.07
I fixed | 0.406 | 1.05 | 1.14 | 0.772 | 0.681 | 3.33 | 0.883 | 0.491 | 0.797 | 0.806
K fixed | 0.586 | 0.815 | 0.403 | 1.17 | 1.17 | 0.402 | 0.87 | 0.79 | 0.874 | 1.08
L fixed | 0.815 | 0.961 | 1.49 | 0.918 | 0.987 | 1.54 | 1.01 | 0.885 | 0.985 | 0.936
M fixed | 1.15 | 0.954 | 0.883 | 1.19 | 1.09 | 1.06 | 0.779 | 0.928 | 0.884 | 0.965
N fixed | 0.45 | 1.01 | 0.619 | 0.897 | 0.922 | 0.549 | 0.96 | 1.18 | 0.903 | 1.09
P fixed | 0.184 | 1.02 | 2.74 | 0.832 | 1.38 | 0.541 | 1.29 | 1.14 | 1.22 | 1.2
Q fixed | 1.13 | 0.901 | 0.419 | 1.09 | 0.947 | 0.745 | 1.08 | 0.973 | 1.18 | 1.07
R fixed | 0.969 | 1.22 | 0.633 | 1.36 | 1.36 | 0.406 | 0.825 | 0.813 | 0.953 | 1.19
S fixed | 1.16 | 1.32 | 1.17 | 1.01 | 1.06 | 0.472 | 1.12 | 1.06 | 0.86 | 1.01
T fixed | 0.843 | 1.37 | 1.28 | 0.939 | 1.19 | 0.908 | 1.19 | 1.05 | 0.796 | 0.97
V fixed | 1.03 | 1.39 | 1.04 | 0.925 | 0.996 | 1.81 | 1.4 | 0.873 | 1.01 | 0.873
W fixed | 1.26 | 0.958 | 1.44 | 1.08 | 0.743 | 0.516 | 0.567 | 0.799 | 0.622 | 0.509
pThr fixed | 0.766 | 0.921 | 0.395 | 0.391 | 0.458 | 0.785 | 0.973 | 1.51 | 1.11 | 0.913
pTyr fixed | 1.47 | 1.77 | 0.465 | 0.55 | 0.607 | 3.35 | 1.39 | 2.36 | 1.66 | 1.18

ABL2, construct: aa38-end, human (from UniProt P42684)
relative phosphorylation
Details | at +1 | at +2 | at +3 | at +4 | at +5 | at -1 | at -2 | at -3 | at -4 | at -5
A fixed | 2.85 | 1.32 | 0.871 | 0.935 | 1.01 | 0.717 | 1.18 | 1.04 | 1.16 | 1.1
D fixed | 0.701 | 0.534 | 0.245 | 0.662 | 0.681 | 1.01 | 1.01 | 1.23 | 1.32 | 1.07
E fixed | 0.884 | 1.2 | 0.199 | 0.735 | 0.686 | 1.45 | 1.38 | 1.88 | 1.69 | 1.13
F fixed | 1.07 | 0.802 | 1.21 | 1.18 | 0.822 | 0.756 | 0.548 | 0.786 | 0.675 | 0.828
G fixed | 1.26 | 0.647 | 1.23 | 1.2 | 1.27 | 0.49 | 1.24 | 1.15 | 1.33 | 1.29
H fixed | 1.06 | 0.833 | 0.868 | 1.13 | 1.02 | 1.62 | 0.933 | 1.02 | 0.859 | 1.12
I fixed | 0.517 | 0.843 | 1.46 | 0.736 | 0.781 | 2.9 | 0.867 | 0.598 | 0.774 | 0.716
K fixed | 0.636 | 0.836 | 0.439 | 1.2 | 1.15 | 0.425 | 0.846 | 0.785 | 0.926 | 1.01
L fixed | 0.857 | 0.904 | 1.47 | 0.813 | 0.85 | 1.55 | 0.885 | 0.758 | 0.87 | 0.831
M fixed | 1.18 | 0.923 | 0.861 | 1.04 | 1.05 | 1.05 | 0.742 | 0.852 | 0.907 | 0.909
N fixed | 0.492 | 1.06 | 0.756 | 0.988 | 1.02 | 0.674 | 1.11 | 1.25 | 0.871 | 1.27
P fixed | 0.161 | 1.14 | 2.59 | 0.968 | 1.57 | 0.556 | 1.36 | 1.26 | 1.34 | 1.24
Q fixed | 1.33 | 0.97 | 0.472 | 1.14 | 0.969 | 0.856 | 1.21 | 0.957 | 1.21 | 1.08
R fixed | 1.03 | 1.27 | 0.684 | 1.43 | 1.4 | 0.451 | 0.896 | 0.883 | 1.07 | 1.18
S fixed | 1.16 | 1.24 | 1.18 | 0.997 | 1.13 | 0.495 | 1.18 | 1.12 | 0.812 | 0.966
T fixed | 0.802 | 1.42 | 1.09 | 0.919 | 1.11 | 1.03 | 1.05 | 1.11 | 0.74 | 0.923
V fixed | 0.938 | 1.33 | 0.988 | 0.872 | 0.79 | 1.54 | 1.13 | 0.771 | 0.828 | 0.84
W fixed | 1.05 | 0.737 | 1.39 | 1.04 | 0.69 | 0.421 | 0.422 | 0.552 | 0.623 | 0.506
pThr fixed | 0.853 | 1.01 | 0.2 | 0.405 | 0.454 | 0.971 | 1.03 | 1.36 | 1.07 | 1.06
pTyr fixed | 1.61 | 1.79 | 0.391 | 0.696 | 0.52 | 3.96 | 1.26 | 1.9 | 1.49 | 1.26

ALK, construct: aa1058-end, human (from UniProt Q9UM73)
relative phosphorylation
Details | at +1 | at +2 | at +3 | at +4 | at +5 | at -1 | at -2 | at -3 | at -4 | at -5
A fixed | 1.39 | 0.79 | 0.525 | 0.758 | 0.82 | 0.976 | 1.09 | 0.931 | 1.23 | 1.06
D fixed | 0.468 | 0.286 | 0.207 | 0.721 | 0.44 | 1.42 | 0.92 | 1.09 | 1.01 | 1.01
E fixed | 1.42 | 0.713 | 0.206 | 0.871 | 0.407 | 0.955 | 1.02 | 1.42 | 1.22 | 0.887
F fixed | 1.04 | 1.16 | 1.55 | 1.34 | 2.19 | 1.08 | 0.732 | 1.05 | 1.02 | 1
G fixed | 0.495 | 0.403 | 0.445 | 0.805 | 0.774 | 0.349 | 1.06 | 1.06 | 1.27 | 1.15
H fixed | 1.15 | 0.762 | 1.14 | 1.17 | 0.806 | 1.02 | 1.18 | 0.992 | 0.88 | 0.985
I fixed | 1.59 | 1.17 | 3.08 | 0.994 | 1.43 | 2.22 | 1.08 | 0.683 | 0.817 | 0.925
K fixed | 0.398 | 0.982 | 0.401 | 0.984 | 0.661 | 0.353 | 0.998 | 1.04 | 0.956 | 1.15
L fixed | 1.24 | 1.44 | 1.22 | 0.906 | 1.55 | 1.64 | 0.915 | 0.81 | 0.954 | 0.983
M fixed | 2.11 | 1.42 | 1.78 | 1.16 | 1.38 | 0.903 | 0.871 | 0.901 | 0.918 | 0.977
N fixed | 0.472 | 0.837 | 0.496 | 0.855 | 0.697 | 1.31 | 0.952 | 1.2 | 0.882 | 1.09
P fixed | 0.296 | 0.934 | 0.476 | 0.939 | 1.54 | 1.06 | 1.11 | 1.1 | 1.29 | 1.21
Q fixed | 1.15 | 0.852 | 0.414 | 1.11 | 0.601 | 0.669 | 1.04 | 0.908 | 1.09 | 0.946
R fixed | 0.528 | 1.46 | 0.667 | 1.31 | 0.879 | 0.346 | 1.19 | 1.19 | 1.31 | 1.21
S fixed | 0.929 | 0.776 | 0.526 | 0.873 | 0.706 | 0.64 | 1.13 | 1.05 | 0.776 | 0.857
T fixed | 0.947 | 0.682 | 0.854 | 0.842 | 0.974 | 0.91 | 1.06 | 0.983 | 0.644 | 0.76
V fixed | 1.43 | 1.06 | 2.3 | 0.998 | 0.968 | 1.53 | 0.929 | 0.733 | 0.803 | 0.819
W fixed | 0.939 | 2.26 | 1.72 | 1.36 | 1.18 | 0.613 | 0.72 | 0.865 | 0.927 | 0.963
pThr fixed | 1.14 | 0.414 | 0.169 | 0.406 | 0.326 | 0.79 | 0.836 | 0.834 | 0.909 | 0.952
pTyr fixed | 1.35 | 1.01 | 0.343 | 1.03 | 0.309 | 3.63 | 1.06 | 1.14 | 1.17 | 1.06
